{"source": "patent US20100047255", "key": {"[1]": {"target": "GST-ISG15, P05161", "sequence (P05161 1-157)": "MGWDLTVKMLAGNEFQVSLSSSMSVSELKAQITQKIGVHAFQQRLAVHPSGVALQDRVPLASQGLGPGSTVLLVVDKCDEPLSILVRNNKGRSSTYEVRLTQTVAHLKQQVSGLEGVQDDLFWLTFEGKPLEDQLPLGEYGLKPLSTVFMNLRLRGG"}, "[2]": {"target": "GST-Ub, P0CG48", "sequence (P0CG48 whole entry, looked up)": "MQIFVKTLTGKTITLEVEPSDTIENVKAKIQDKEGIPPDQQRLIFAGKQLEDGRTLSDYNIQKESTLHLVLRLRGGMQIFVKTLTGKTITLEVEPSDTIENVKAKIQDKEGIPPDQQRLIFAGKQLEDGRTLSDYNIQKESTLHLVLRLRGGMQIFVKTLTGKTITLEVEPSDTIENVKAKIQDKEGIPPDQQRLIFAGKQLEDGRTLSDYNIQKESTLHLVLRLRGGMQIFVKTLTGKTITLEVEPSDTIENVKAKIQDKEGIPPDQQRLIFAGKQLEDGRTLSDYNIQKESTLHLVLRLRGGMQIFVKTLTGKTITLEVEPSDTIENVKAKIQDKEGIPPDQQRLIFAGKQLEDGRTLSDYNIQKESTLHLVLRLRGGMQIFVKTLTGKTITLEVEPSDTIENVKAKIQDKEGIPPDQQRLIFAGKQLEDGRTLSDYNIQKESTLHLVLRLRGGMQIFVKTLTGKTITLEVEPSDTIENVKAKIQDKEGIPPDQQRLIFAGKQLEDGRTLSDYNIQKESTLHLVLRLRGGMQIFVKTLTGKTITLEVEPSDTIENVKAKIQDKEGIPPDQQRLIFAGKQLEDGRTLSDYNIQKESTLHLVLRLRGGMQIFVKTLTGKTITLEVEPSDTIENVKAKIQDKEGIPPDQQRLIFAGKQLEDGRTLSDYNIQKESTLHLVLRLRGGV"}, "[3]": {"target": "GST-Nedd8, Q15843", "sequence (Q15843 whole entry, looked up)": "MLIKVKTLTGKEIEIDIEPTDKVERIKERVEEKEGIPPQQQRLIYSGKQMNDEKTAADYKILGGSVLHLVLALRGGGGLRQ"}, "[4]": {"target": "T1, Use1 purified from bacteria", "T1 chain": "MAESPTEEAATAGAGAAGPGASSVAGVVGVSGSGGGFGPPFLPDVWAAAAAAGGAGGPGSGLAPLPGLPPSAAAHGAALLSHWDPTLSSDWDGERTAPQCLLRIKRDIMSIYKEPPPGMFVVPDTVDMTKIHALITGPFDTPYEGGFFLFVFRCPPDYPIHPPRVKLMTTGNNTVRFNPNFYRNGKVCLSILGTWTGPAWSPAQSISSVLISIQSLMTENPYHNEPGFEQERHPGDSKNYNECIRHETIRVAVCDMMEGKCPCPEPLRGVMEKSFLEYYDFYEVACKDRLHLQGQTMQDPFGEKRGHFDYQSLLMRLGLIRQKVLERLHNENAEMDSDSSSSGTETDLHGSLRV"}}, "data": [{"protein": "GST-Ube1L (protein) MDALDASKLLDEELYSRQLYVLGSPAMQRIQGARVLVSGLQGLGAEVAKNLVLMGVGSLTLHDPHPTCWSDLAAQFLLSEQDLERSRAEASQELLAQLNRAVQVVVHTGDITEDLLLDFQVVVLTAAKLEEQLKVGTLCHKHGVCFLAADTRGLVGQLFCDFGEDFTVQDPTEAEPLTAAIQHISQGSPGILTLRKGANTHYFRDGDLVTFSGIEGMVELNDCDPRSIHVREDGSLEIGDTTTFSRYLRGGAITEVKRPKTVRHKSLDTALLQPHVVAQSSQEVHHAHCLHQAFCALHKFQHLHGRPPQPWDPVDAETVVGLARDLEPLKRTEEEPLEEPLDEALVRTVALSSAGVLSPMVAMLGAVAAQEVLKAISRKFMPLDQWLYFDALDCLPEDGELLPSPEDCALRGSRYDGQIAVFGAGFQEKLRRQHYLLVGAGAIGCELLKVFALVGLGAGNSGGLTVVDMDHIERSNLSRQFLFRSQDVGRPKAEVAAAAARGLNPDLQVIPLTYPLDPTTEHIYGDNFFSRVDGVAAALDSFQARRYVAARCTHYLKPLLEAGTSGTWGSATVFMPHVTEAYRAPASAAASEDAPYPVCTVRYFPSTAEHTLQWARHEFEELFRLSAETINHHQQAHTSLADMDEPQTLTLLKPVLGVLRVRPQNWQDCVAWALGHWKLCFHYGIKQLLRHFPPNKVLEDGTPFWSGPKQCPQPLEFDTNQDTHLLYVLAAANLYAQMHGLPGSQDWTALRELLKLLPQPDPQQMAPIFASNLELASASAEFGPEQQKELNKALEVWSVGPPLKPLMFEKDDDSNFHVDFVVAAASLRCQNYGIPPVNRAQSKRIVGQIIPAIATTTAAVAGLLGLELYKVVSGPRPRSAFRHSYLHLAENYLIRYMPFAPAIQTFHHLKWTSWDRLKVPAGQPERTLESLLAHLQEQHGLRVRILLHGSALLYAAGWSPEKQAQHLPLRVTELVQQLTGQAPAPGQRVLVLELSCEGDDEDTAFPPLHYEL", "values": [{"measurement": "activation in vitro (SDS-PAGE, Coomassie); result: activated", "setting": "[1]", "result": "While it was active toward ISG15, as expected"}, {"measurement": "activation in vitro (SDS-PAGE, Coomassie); result: not activated", "setting": "[2]", "result": "it failed to activate GST-Ub"}]}, {"protein": "Uba3/APPBP1 (protein) chain 1: MADGEEPEKKRRRIEELLAEKMAVDGGCGDTGDWEGRWNHVKKFLERSGPFTHPDFEPSTESLQFLLDTCKVLVIGAGGLGCELLKNLALSGFRQIHVIDMDTIDVSNLNRQFLFRPKDIGRPKAEVAAEFLNDRVPNCNVVPHFNKIQDFNDTFYRQFHIIVCGLDSIIARRWINGMLISLLNYEDGVLDPSSIVPLIDGGTEGFKGNARVILPGMTACIECTLELYPPQVNFPMCTIASMPRLPEHCIEYVRMLQWPKEQPFGEGVPLDGDDPEHIQWIFQKSLERASQYNIRGVTYRLTQGVVKRIIPAVASTNAVIAAVCATEVFKIATSAYIPLNNYLVFNDVDGLYTYTFEAERKENCPACSQLPQNIQFSPSAKLQEVLDYLTNSASLQMKSPAITATLEGKNRTLYLQSVTSIEERTRPNLSKTLKELGLVDGQELAVADVTTPQTVLFKLHFTS chain 2: MAQLGKLLKEQKYDRQLRLWGDHGQEALESAHVCLINATATGTEILKNLVLPGIGSFTIIDGNQVSGEDAGNNFFLQRSSIGKNRAEAAMEFLQELNSDVSGSFVEESPENLLDNDPSFFCRFTVVVATQLPESTSLRLADVLWNSQIPLLICRTYGLVGYMRIIIKEHPVIESHPDNALEDLRLDKPFPELREHFQSYDLDHMEKKDHSHTPWIVIIAKYLAQWYSETNGRIPKTYKEKEDFRDLIRQGILKNENGAPEDEENFEEAIKNVNTALNTTQIPSSIEDIFNDDRCINITKQTPSFWILARALKEFVAKEGQGNLPVRGTIPDMIADSGKYIKLQNVYREKAKKDAAAVGNHVAKLLQSIGQAPESISEKELKLLCSNSAFLRVVRCRSLAEEYGLDTINKDEIISSMDNPDNEIVLYLMLRAVDRFHKQQGRYPGVSNYQVEEDIGKLKSCLTGFLQEYGLSVMVKDDYVHEFCRYGAAEPHTIAAFLGGAAAQEVIKIITKQFVIFNNTYIYSGMSQTSATFQL", "values": [{"measurement": "activation in vitro (non-reducing gel); result: activated", "setting": "[3]", "result": "GST-Nedd8 is activated by Uba3/APPBP1 in vitro"}]}, {"protein": "Flag-tagged Uba6 (protein) MEGSEPVAAHQGEKASCSSWGTGSTNKNLPIMSTASVEIDDALYSRQRYVLGDTAMQKMAKSHVFLSGMGGLGLEIAKNLVLAGIKAVTIHDTEKCQAWDLGTNFFLSEDDVVNKRNRAEAVLKHIAELNPYVHVTSSSAPFNETTDLSFLDKYQCVVLTEMKLPLQKKINDFCRSQCPPIKFISADVHGIWSRLFCDFGDEFEVLDTTGEEPKEIFISNITQTNPGIVTCLENHPHKLETGQFLTFREINGMTGLNGSIQQITVISPFSFSIGDTTELEPYLHGGIAVQVKTPKTVFFESLERQLKHPKCLIVDFSNPEAPLEIHTAMLALDQFQEKYSRKPNVGCQQDSEELLKLATSISETLEEKPDVNADIVHWLSWTAQGFLSPLAAAVGGVASQEVLKAVTGKFSPLCQWLYLEAADIVESLGKPECEEFLPRGDRYDALRACIGDTLCQKLQNLNIFLVGCGAIGCEMLKNFALLGVGTSKEKGMITVTDPDLIEKSNLNRQFLFRPHHIQKPKSYTAADATLKINSQIKIDAHLNKVCPTTETIYNDEFYTKQDVIITALDNVEARRYVDSRCLANLRPLLDSGTMGTKGHTEVIVPHLTESYNSHRDPPEEEIPFCTLKSFPAAIEHTIQWARDKFESSFSHKPSLFNKFWQTYSSAEEVLQKIQSGHSLEGCFQVIKLLSRRPRNWSQCVELARLKFEKYFNHKALQLLHCFPLDIRLKDGSLFWQSPKRPPSPIKFDLNEPLHLSFLQNAAKLYATVYCIPFAEEDLSADALLNILSEVKIQEFKPSNKVVQTDETARKPDHVPISSEDERNAIFQLEKAILSNEATKSDLQMAVLSFEKDDDHNGHIDFITAASNPRAKMYSIEPADRFKTKRIAGKIIPAIATTTATVSGLVALEMIKVTGGYPFEAYKNCFLNLAIPIVVFTETTEVRKTKIRNGISFTIWDRWTVHGKEDFTLLDFINAVKEKYGIEPTMVVQGVKMLYVPVMPGHAKRLKLTMHKLVKPTTEKKYVDLTVSFAPDIDGDEDLPGPPVRYYFSHDTD", "values": [{"measurement": "charging of purified Use1 (2.5 µM) with increasing Flag-Uba6, 25 µM ubiquitin, 2 mM ATP; result: charged", "setting": "[4]", "result": "Charging of purified Use1 by Uba6"}, {"measurement": "activation in vitro, titration of GST-Ub, anti-Flag immunoblot; result: activated", "setting": "[2]", "result": "Uba6 activated GST-Ub but not GST-Nedd8"}, {"measurement": "ubiquitin activation in vitro (non-reducing SDS-PAGE, Coomassie); result: activated", "setting": "[2]", "result": "Uba6 could activate ubiquitin"}, {"measurement": "activation in vitro, titration of GST-Nedd8, anti-Flag immunoblot; result: not activated", "setting": "[3]", "result": "Uba6 activated GST-Ub but not GST-Nedd8"}]}]}
